Paper PMC4118829

Assays:
[1] = molecular target: N-terminal domain of the ectodomain of Hepatitis C virus envelope glycoprotein E1, N43Q (Hepatitis C virus); test: reducing and nonreducing SDS-PAGE; 15% reducing (R) and nonreducing (NR) SDS-PAGE gels of purified deglycosylated HCV nE1; covalent dimer
[2] = molecular target: N-terminal domain of the ectodomain of Hepatitis C virus envelope glycoprotein E1, N43Q (Hepatitis C virus); test: SEC; size-exclusion chromatography; data not shown

With “N-terminal domain of the ectodomain of Hepatitis C virus envelope glycoprotein E1, N43Q (domain or fragment)” the stoichiometry N [1] was 2 and the stoichiometry N [2] was 2.
